Key:
MC38 cells = test: MC38 colon carcinoma model; format: in vivo, mice; details: 20 μg/injection i.p. for 3 weeks; vs isotype control; FIG. 9D
Description: (§1) FIG. 9. Effect of an anti-CMKLR1 antibody on 2 different colon carcinoma mice models. Two mice models were studied, and animals received isotype control antibody (3G8) (x) or anti-CMKLR1 (2G1) (□) at 20 μg/injection intraperitoneally for 3 weeks. A-C. Results in the CT26 colon carcinoma model comparing single treatment with p84 (A) and 2G1 (B) with combined therapy with both antibodies (C). D: Results in the MC38 colon carcinoma model.
(§2) 8-week old C57bl/6J male mice were anesthetized with 3% of isoflurane. Mice were shaved on the flank and MC38 cells (0.5·10≢cells/mouse) cell lines were injected subcutaneously with an insulinic syringe (30 Gauges) in 50 μL of PBS. Another model was used, in which 8-week old Balb/c male mice were anesthetized with 3% of isoflurane. Mice were shaved on the flank and CT26 cells (1.10≢cells/mouse) were injected subcutaneously with an insulinic syringe (30 Gauges) in 50 μL of PBS.
(§3) The agonistic anti-CMKLR1 antibody (2G1) or an anti-SIRPa antibody (p84-anti-mouse SIRPa from Merck Millipore) (SIRPa is a new checkpoint inhibitor) were injected once a week (20 μg/injection) intraperitoneally for 3 weeks starting at d4 after tumor inoculation alone or combined.

[1] = tested on: psoriasis induced by Aldara cream; format: in vivo, mice
Description: FIG. 6. Effect of anti-CMKLR1 agonist on an autoimmune disease such as mice psoriasis model. Aldara treated mice for 4 to 6 consecutive days were injected intra-peritoneally with: 2G1 (●) or isotype control antibody (x). A. thicknesses and B weight.
Aldara® cream which is known to induce psoriasis in mice was used on male C57Bl/6 mice (8-10-week old). Mice received a daily topical dose of Aldara. Treatments (anti-CMKLR1 agonist or control compound) were injected intra-peritoneally: […]

CT26 cells = test: CT26 colon carcinoma model; format: in vivo, mice; details: 20 μg/injection i.p. for 3 weeks from d4; FIG. 9A-C
Description: as §1, §2, §3

[2] = tested on: neutrophils and macrophages in exudates; test: in vivo neutrophils apoptosis (sterile air and carrageenan, exudates)
Description: FIG. 27—in vivo neutrophils apoptosis —A) Experimental proceedings—B) ChemR23 expression C) neutrophils frequency in exudates D) macrophages frequency in exudates G) neutrophils mortality F) Ratio dead/living neutrophils.
Sterile air was injected two times at d3 and d6 and inflammation was initiated with the injection of carrageenan. Exudates were collected at different times and stained for flow cytometry analysis.

[3] = target: T1, CMKLR1 receptor (CHO-K1 CMKLR1 cells) (Homo sapiens, UniProt Q99788); test: competition assay, Chemerin-dependent beta-arrestin recruitment by CMKLR1 receptor; format: cell-based; details: antibody 1 μM to 1 nM, Chemerin 2 or 6 nM; FIG. 18B
T1 construct: host or cells: CHO-K1
T1 sequence (Q99788 1-373): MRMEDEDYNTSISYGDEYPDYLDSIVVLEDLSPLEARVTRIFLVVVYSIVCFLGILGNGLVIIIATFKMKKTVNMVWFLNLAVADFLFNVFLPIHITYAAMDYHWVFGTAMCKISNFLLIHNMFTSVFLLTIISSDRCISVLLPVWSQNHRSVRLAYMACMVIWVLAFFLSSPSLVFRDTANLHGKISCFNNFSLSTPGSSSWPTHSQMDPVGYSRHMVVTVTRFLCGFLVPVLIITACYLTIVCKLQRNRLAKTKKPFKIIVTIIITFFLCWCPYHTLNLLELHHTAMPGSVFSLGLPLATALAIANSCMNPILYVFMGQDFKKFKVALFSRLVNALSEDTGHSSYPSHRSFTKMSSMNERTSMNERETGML
Description: The day before the assay, CHO-K1 CMKLR1 cells (Discover'X ref 93-0313E2) were plated in pre-warmed cell reagent then plated in a 96-well plate at 100 μl/well of cells as (Discover'X ref 15-103) and incubated […] at 37° C., in a 5% CO2 humidified incubator. The anti-CMLKR1 antibody was diluted (22× in 7-point series of 3-fold dilutions from 1 μM to 1 nM) and cells were incubated 30 min at 37° C. with the antibody. […] The luminescence was measured after Working Detection Solution addition to the cells with a plate reader with 0.5 s integration.

colitis induced by TNBS = test: acute inflammatory colitis model induced by TNBS; format: in vivo, mice; details: RvE1 1 μg per mouse daily, 2G1 10 μg per mouse; FIG. 3
Description: FIG. 3. Effect of an anti-CMKLR1 antibody on a mice acute inflammatory colitis model induced by TNBS. Mice received 200 μL of the haptenating agent TNBS at 5% in 50% ethanol on day 0 and then were injected with isotype control hIgG1 (10 μg per mouse) (x), RvE1 (1 μg per mouse) daily (●), or 2G1 antibody (10 μg per mouse) three times (□) for 5 days, or non-treated (wild type animals) (▴). Mice were sacrificed colon length was measured in each condition.
Colitis was induced in 8-10 weeks-old-C57Bl/6 male mice by intrarectal injection of 200 μL of the haptenating agent TNBS at 5% in 50% ethanol on day 0. Treatments were injected intra-peritoneally; RvE1 (1 μg per mouse) daily for three days, or 2G1 antibody (10 μg per mouse) twice for 3 days. Colitis follow-up consisting of body weight and stool score (0: normal stool; 4: blood in stool) parameters were performed daily (data not represented). When mice are euthanized, colon length representing the pathology severity was measured.

MC38 CRC cell line = test: CRC model, tumor cell inoculated (MC38 subcutaneously); format: in vivo, mice; details: FIG. 31A
Description: Tumor inoculation was performed with 0.5M of MC38 CRC cell line subcutaneously. Mice were injected three times a week with 1 mg/kg of 2G1 or Ctrl Ab for 3 weeks starting at d4 after tumor induction. Cyclophosphamide was injected I.P. once at 100 mg/kg. Tumor development was assessed three times a week and survival curves were established when mice developed a tumor >1000 mm3.

AK-7 cells = test: Mesothelioma model survival; format: in vivo, mice; details: 1 mg/kg three times a week for 3 weeks starting at d4; vs control antibody; FIG. 30
Description: AK-7 cells (3M) were injected in the pleural cavity and mice received either Iso ctrl or 2G1 three times a week for 3 weeks starting at d4 at 1 mg/kg.

B1: 2G1: parental chimeric anti-CMKLR1 antibody: heavy chain variable domain SEQ ID No. 37, light chain variable domain SEQ ID No. 49 (antibody, V domains shown)
VH: EVQLVASGGGLVQPGGSLKLSCAASGFTFSSYGMSWVRQTPDRRLELVATINRYGGSTYYPDSVKGRFTISRDNAKNTLYLQMSSLKSEDTAMYYCPRLIYYGNEGDSWGQGTTLTVSS
VL: QIVLTQSPAIMSASPGEKVTMTCSASSSVSFMHWYQQKSGTSPKRWIYDTTKLTSGVPARFSGSGSGTFYSLTISSMEAEDAATYYCQQWNSKPPLTFGPGTKLELKR
What does the source list for B1?
tumor growth (MC38 cells): did show an efficacy in the inhibition of the tumor growth; thickness of the skin ([1]; after Aldara administration, e.g. day 15, FIG. 6A): reduces the thickness of the skin; weight of the animals ([1]; mouse, in vivo): not impacted; tumor development (CT26 cells): did not demonstrate a clinical effect on the tumor development; percentage of neutrophils in exudates ([2]; FIG. 27C): not significantly decreased; overall percentage of macrophages in exudates ([2]; FIG. 27D): slightly enhanced; percentage of dead neutrophils ([2]; FIG. 27E and FIG. 27F): increased; chemerin-dependent activation of the beta-arrestin [3]: did not significantly modify chemerin-dependent activation of the beta-arrestin; colon length (colitis induced by TNBS): the same as normal animal; tumor volume (MC38 CRC cell line; 1 mg/kg three times a week for 3 weeks starting at d4, vs control antibody): reduced; remission (MC38 CRC cell line; in several cases): complete remission; survival rate (AK-7 cells): higher survival rate

Reference: US12534533B2, “Anti-chemokine like receptor 1 humanized antibodies and their therapeutic applications” (OSE IMMUNOTHERAPEUTICS, priority 2019, dated 2026)
